These results are taken from patent US20110129459A1 (Chugai, published 2011).

B1: Lp5 variant of H0L0 (antibody, V domains shown)
VH: QVQLVQSGAEVKKPGASVKVSCKASGYTFTGYIMNWVRQAPGQGLEWMGLINPYNGGTSYNQKFKGRVTITADESTSTAYMELSSLRSEDTAVYYCARDGYDDGPYTMDYWGQGTLVTVSS
VL: DIQMTQSPSSLSASVGDRVTITCRTSENIYSFLAWYQQKPGKAPKLLIYNAKTLAQGVPSRFSGSGSGTDFTLTISSLQPEDFATYYCQHHYESPLTFGGGTKVEIKR
notes: copies: 2 + 2
B2: Hp1 variant of H0L0 (antibody, V domains shown)
VH: QVQLVQSGAEVKKPGASVKVSCKASGYTFTGYIMNWVRQAPGQGLEWMGLINPYNGGTSYNQKFQGRVTITADESTSTAYMELSSLRSEDTAVYYCARDGYDDGPYTMDYWGQGTLVTVSS
VL: DIQMTQSPSSLSASVGDRVTITCRTSENIYSFLAWYQQKPGKAPKLLIYNAKTLAKGVPSRFSGSGSGTDFTLTISSLQPEDFATYYCQHHYESPLTFGGGTKVEIK
B3: Hp8 variant of H0L0 (antibody, V domains shown)
VH: QVQLVQSGAEVKKPGASVKVSCKASGYTFTGYIMNWVRQAPGQGLEWMGLIDPYNGGTSYNQKFKGRVTITADESTSTAYMELSSLRSEDTAVYYCARDGYDDGPYTMDYWGQGTLVTVSS
VL: DIQMTQSPSSLSASVGDRVTITCRTSENIYSFLAWYQQKPGKAPKLLIYNAKTLAKGVPSRFSGSGSGTDFTLTISSLQPEDFATYYCQHHYESPLTFGGGTKVEIK
B4: Lp3 variant of H0L0 (antibody, V domains shown)
VH: QVQLVQSGAEVKKPGASVKVSCKASGYTFTGYIMNWVRQAPGQGLEWMGLINPYNGGTSYNQKFKGRVTITADESTSTAYMELSSLRSEDTAVYYCARDGYDDGPYTMDYWGQGTLVTVSS
VL: DIQMTQSPSSLSASVGDRVTITCRTSENIYSFLAWYQQKPGKAPKLLIYDAKTLAKGVPSRFSGSGSGTDFTLTISSLQPEDFATYYCQHHYESPLTFGGGTKVEIK
B5: Lp2 variant of H0L0 (antibody, V domains shown)
VH: QVQLVQSGAEVKKPGASVKVSCKASGYTFTGYIMNWVRQAPGQGLEWMGLINPYNGGTSYNQKFKGRVTITADESTSTAYMELSSLRSEDTAVYYCARDGYDDGPYTMDYWGQGTLVTVSS
VL: DIQMTQSPSSLSASVGDRVTITCRTSEDIYSFLAWYQQKPGKAPKLLIYNAKTLAKGVPSRFSGSGSGTDFTLTISSLQPEDFATYYCQHHYESPLTFGGGTKVEIK
B6: Hp7 variant of H0L0 (antibody, V domains shown)
VH: QVQLVQSGAEVKKPGASVKVSCKASGYTFTGYIMNWVRQAPGQGLEWMGEINPYNGGTSYNQKFKGRVTITADESTSTAYMELSSLRSEDTAVYYCARDGYDDGPYTMDYWGQGTLVTVSS
VL: DIQMTQSPSSLSASVGDRVTITCRTSENIYSFLAWYQQKPGKAPKLLIYNAKTLAKGVPSRFSGSGSGTDFTLTISSLQPEDFATYYCQHHYESPLTFGGGTKVEIK
B7: Hp6 variant of H0L0 (antibody, V domains shown)
VH: QVQLVQSGAEVKKPGASVKVSCKASGYTFTGYIMNWVRQAPGQGLEWMGLINPYNGGTSYNDKFKGRVTITADESTSTAYMELSSLRSEDTAVYYCARDGYDDGPYTMDYWGQGTLVTVSS
VL: DIQMTQSPSSLSASVGDRVTITCRTSENIYSFLAWYQQKPGKAPKLLIYNAKTLAKGVPSRFSGSGSGTDFTLTISSLQPEDFATYYCQHHYESPLTFGGGTKVEIK
B8: Lp7 variant of H0L0 (antibody, V domains shown)
VH: QVQLVQSGAEVKKPGASVKVSCKASGYTFTGYIMNWVRQAPGQGLEWMGLINPYNGGTSYNQKFKGRVTITADESTSTAYMELSSLRSEDTAVYYCARDGYDDGPYTMDYWGQGTLVTVSS
VL: DIQMTQSPSSLSASVGDRVTITCRTSENIYSFLAWYQQKPGKAPKLLIYNAKTEAKGVPSRFSGSGSGTDFTLTISSLQPEDFATYYCQHHYESPLTFGGGTKVEIK
B9: Lp6 variant of H0L0 (antibody, V domains shown)
VH: QVQLVQSGAEVKKPGASVKVSCKASGYTFTGYIMNWVRQAPGQGLEWMGLINPYNGGTSYNQKFKGRVTITADESTSTAYMELSSLRSEDTAVYYCARDGYDDGPYTMDYWGQGTLVTVSS
VL: DIQMTQSPSSLSASVGDRVTITCRTSENIYSFLAWYQQKPGKAPKLLIYNAKTLADGVPSRFSGSGSGTDFTLTISSLQPEDFATYYCQHHYESPLTFGGGTKVEIKR
notes: copies: 2 + 2
B10: Hp13 variant of H0L0 (antibody, V domains shown)
VH: QVQLVQSGAEVKKPGASVKVSCKASGYTFTGYIMNWVRQAPGQGLEWMGLINPYNGGTSYNQKFQDRVTITADESTSTAYMELSSLRSEDTAVYYCARDGYDDGPYTMDYWGQGTLVTVSS
VL: DIQMTQSPSSLSASVGDRVTITCRTSENIYSFLAWYQQKPGKAPKLLIYNAKTLAKGVPSRFSGSGSGTDFTLTISSLQPEDFATYYCQHHYESPLTFGGGTKVEIK
B11: Lp1 variant of H0L0 (antibody, V domains shown)
VH: QVQLVQSGAEVKKPGASVKVSCKASGYTFTGYIMNWVRQAPGQGLEWMGLINPYNGGTSYNQKFKGRVTITADESTSTAYMELSSLRSEDTAVYYCARDGYDDGPYTMDYWGQGTLVTVSS
VL: DIQMTQSPSSLSASVGDRVTITCQTSENIYSFLAWYQQKPGKAPKLLIYNAKTLAKGVPSRFSGSGSGTDFTLTISSLQPEDFATYYCQHHYESPLTFGGGTKVEIK
B12: Lp4 variant of H0L0 (antibody, V domains shown)
VH: QVQLVQSGAEVKKPGASVKVSCKASGYTFTGYIMNWVRQAPGQGLEWMGLINPYNGGTSYNQKFKGRVTITADESTSTAYMELSSLRSEDTAVYYCARDGYDDGPYTMDYWGQGTLVTVSS
VL: DIQMTQSPSSLSASVGDRVTITCRTSENIYSFLAWYQQKPGKAPKLLIYNAQTLAKGVPSRFSGSGSGTDFTLTISSLQPEDFATYYCQHHYESPLTFGGGTKVEIK
B13: Hp9 variant of H0L0 (antibody, V domains shown)
VH: QVQLVQSGAEVKKPGASVKVSCKASGYTFTGYIMNWVRQAPGQGLEWMGLINPYNGGTSYNQQFKGRVTITADESTSTAYMELSSLRSEDTAVYYCARDGYDDGPYTMDYWGQGTLVTVSS
VL: DIQMTQSPSSLSASVGDRVTITCRTSENIYSFLAWYQQKPGKAPKLLIYNAKTLAKGVPSRFSGSGSGTDFTLTISSLQPEDFATYYCQHHYESPLTFGGGTKVEIK
B14: Hp5 variant of H0L0 (antibody, V domains shown)
VH: QVQLVQSGAEVKKPGASVKVSCKASGYTFTGYIMNWVQQSPGQGLEWMGLINPYNGGTSYNQKFKGRVTITADESTSTAYMELSSLRSEDTAVYYCARDGYDDGPYTMDYWGQGTLVTVSS
VL: DIQMTQSPSSLSASVGDRVTITCRTSENIYSFLAWYQQKPGKAPKLLIYNAKTLAKGVPSRFSGSGSGTDFTLTISSLQPEDFATYYCQHHYESPLTFGGGTKVEIK

In this test the target is T1, cytoplasmic domain-lacking human NR10 on CHO cells (hNR10-expressing CHO cells) (human, UniProt Q8NI17 20-553).
T1 construct: also called NR10-expressing cells
T1 sequence: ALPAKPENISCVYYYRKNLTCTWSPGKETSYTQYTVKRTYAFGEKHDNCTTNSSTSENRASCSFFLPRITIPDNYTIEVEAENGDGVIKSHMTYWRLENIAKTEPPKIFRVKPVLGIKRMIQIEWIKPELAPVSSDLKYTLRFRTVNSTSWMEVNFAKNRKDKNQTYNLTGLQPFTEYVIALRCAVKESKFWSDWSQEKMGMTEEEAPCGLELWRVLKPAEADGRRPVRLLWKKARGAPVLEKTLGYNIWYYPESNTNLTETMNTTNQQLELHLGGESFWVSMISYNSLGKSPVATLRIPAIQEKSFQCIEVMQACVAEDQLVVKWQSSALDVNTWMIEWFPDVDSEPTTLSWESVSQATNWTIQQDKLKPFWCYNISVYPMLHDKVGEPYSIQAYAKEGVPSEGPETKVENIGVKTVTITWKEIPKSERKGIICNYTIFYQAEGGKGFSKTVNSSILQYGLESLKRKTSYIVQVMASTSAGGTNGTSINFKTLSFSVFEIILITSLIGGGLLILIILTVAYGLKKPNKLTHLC
Put plainly: FMAT competition on hNR10-expressing CHO cells: antibody titrated against FMAT Blue-labeled hIL-31; FL1 = cell-bound labeled hIL-31; mean±S.D. (n=3). On the procedure:
Antibodies were assessed for the activity of inhibiting the IL-31/NR10 binding by using hNR10-expressing CHO cells as described below. The chimeric NS22 antibody and NS22_H0L0 (H chain, H0-SKSC/SEQ ID NO: 54; L chain, L0/SEQ ID NO: 56) were diluted at an appropriate concentration using Assay buffer (10 mM HEPES, 140 mM NaCl, 2.5 mM CaCl₂, 3 mM MgCl₂, 2% FBS, 0.01% NaN₃, pH7.4), and further eight serial dilutions were prepared at a common dilution ration of 2. The dilutions were added at 40 μl/well to plates (96-Well FMAT Plates, Applied Biosystems). Then, FMAT Blue-labeled hIL-31 was diluted 400 times with Assay buffer, and added at 20 μl/well. Finally, a cell suspension adjusted to 2.5×10⁵ cells/ml using Assay buffer was added at 40 μl/well (final 1×10⁴ cells/well). Two hours after addition of cells, the fluorescence (FL1) was measured using the 8200 Cellular Detection System (Applied Biosystems).
Each variant was tested for the activity of inhibiting the hIL-31/hNR10 binding by using FMAT. The test was carried out according to the method as described in Example 4.
As for B1, the binding result is recorded as “binds”.
On the same count and under the same terms, to B2 belongs “binds”.
The same measure, in the same setting: next, B3: “binds”.
The same measure, in the same setting: to B4 belongs “binds”.
Regarding B5, the binding result is given as “binds”.
On the same count and under the same terms, next, B6: “binds”.
B7: the “IC50 (read off the curve)” value is around 0.1 µg/mL.
Take B8: the binding result is reported as “binds”.
Same read-out and setting: to B9 belongs “binds”; to B10, “binds”.
As to B11, the binding result is “binds”.
Same read-out and setting: next, B12: “binds”.
Turning to B13, the “IC50 (read off the curve)” value was around 0.1 µg/mL.
For B14, the binding result is recorded as “binds”.
